# According to FireProtDB (doi:10.1021/bi027116n):
# Where “and” joins values, the source holds several entries; their conditions need not be identical. Identical values can stand only once.
# B1: 2Fe-2S ferredoxin-5 wild type, P59799 (protein)
# chain: MPKVIVANINAEFEGIENETIMQILYRNGIEIDSACGGHGQCTSCKVLIISGSENLYPAEFEEKDTLEENGMDPETERLSCQAKLNGKGDVVIYLP
# Conditions: Aquifex aeolicus (strain VF5), reversible: no, whole UniProt chain shown; for denaturant midpoint (higher = more stable): 20 °C, GdnHCl
protein,measurement,setting,value
B1,denaturant midpoint (higher = more stable),"pH 4, Absorbance, citric acid-NaH2PO4",3.2 M
same,denaturant midpoint (higher = more stable),"pH 4, Emission, citric acid-NaH2PO4",3.2 M
same,denaturant midpoint (higher = more stable),"pH 5, Absorbance, Unknown",6.7 M
same,denaturant midpoint (higher = more stable),"pH 5, CD, Unknown",6.7 M
same,denaturant midpoint (higher = more stable),"pH 5, Emission, Unknown",6.9 M
same,denaturant midpoint (higher = more stable),"pH 10, Absorbance, Glycine-OH",7.5 M and 7.1 M
same,denaturant midpoint (higher = more stable),"pH 10, CD, Glycine-OH",7 M
same,denaturant midpoint (higher = more stable),"pH 10, CD, glycine-OH",6.6 M and 6.3 M and 6.1 M
same,denaturant midpoint (higher = more stable),"pH 10, Emission, Glycine-OH",7 M
same,denaturant midpoint (higher = more stable),"pH 10, Emission, glycine-OH",6.5 M and 6.1 M
same,Tm,"pH 10, Thermal, Absorbance, Glycine-OH",116 °C
same,denaturant midpoint (higher = more stable),"pH 11, CD, NaHCO3-NaOH",6.2 M
same,denaturant midpoint (higher = more stable),"pH 11, Emission, NaHCO3-NaOH",6.2 M
